In PMC4294777:

Target: Klp5-3FLAG (fission yeast) (UniProt O14343)
Assay: co-IP; protein extracts (4 mg or 8 mg) of metaphase-arrested cut9-665 cells (36°C, 2.5 hours) added to protein A Dynabeads coated with anti-Flag antibodies; blotted with anti-Flag and anti-Myc

UniProt O14343, sequence (O14343 whole entry): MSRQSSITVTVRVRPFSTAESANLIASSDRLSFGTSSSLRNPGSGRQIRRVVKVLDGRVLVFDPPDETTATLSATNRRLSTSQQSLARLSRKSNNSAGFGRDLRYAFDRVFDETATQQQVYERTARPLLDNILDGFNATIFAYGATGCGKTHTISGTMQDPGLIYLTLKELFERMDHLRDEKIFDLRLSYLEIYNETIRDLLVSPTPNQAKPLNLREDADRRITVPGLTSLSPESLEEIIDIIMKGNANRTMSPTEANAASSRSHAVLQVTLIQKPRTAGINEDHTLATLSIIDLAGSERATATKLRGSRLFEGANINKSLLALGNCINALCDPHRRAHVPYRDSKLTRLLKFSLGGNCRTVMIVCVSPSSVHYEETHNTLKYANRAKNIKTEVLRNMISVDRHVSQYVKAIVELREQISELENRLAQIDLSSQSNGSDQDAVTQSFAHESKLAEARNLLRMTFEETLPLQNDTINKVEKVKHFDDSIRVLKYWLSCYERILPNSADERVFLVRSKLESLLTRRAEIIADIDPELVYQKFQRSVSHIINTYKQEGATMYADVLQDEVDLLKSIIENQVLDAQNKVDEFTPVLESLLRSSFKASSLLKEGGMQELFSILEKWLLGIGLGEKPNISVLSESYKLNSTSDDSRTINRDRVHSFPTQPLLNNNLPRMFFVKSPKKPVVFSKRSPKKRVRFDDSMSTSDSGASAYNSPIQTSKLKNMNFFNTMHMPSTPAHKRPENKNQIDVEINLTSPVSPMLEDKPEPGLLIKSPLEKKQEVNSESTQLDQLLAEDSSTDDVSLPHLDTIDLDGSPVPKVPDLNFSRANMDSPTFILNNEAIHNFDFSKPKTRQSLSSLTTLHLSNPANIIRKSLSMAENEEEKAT

## Alp7-LA6-Myc (from UniProt Q9URY2 1-474) (natural protein)
  reduction of binding compared to Alp7: > 70%
